Assay results as given in article PMC8120272, “Heterologous Expression and Biochemical Characterization of the Human Zinc Transporter 1 (ZnT1) and Its Soluble C-Terminal Domain” (Frontiers in Chemistry, 2021).

Molecular target: the molecule itself
Test: SEC-SAXS (small-angle X-ray scattering); in-line SEC-SAXS with sheath flow, SAXS-WAXS beamline of the Australian Synchrotron; molecular mass estimated from the Porod volume; conditions in Supplementary Table 3

B1: soluble C-terminal domain of human zinc transporter 1 (hZnT1-CTD) (domain or fragment, UniProt Q9Y6M5 342-507, looked up)
chain: ILLQTVPKQIDIRNLIKELRNVEGVEEVHELHVWQLAGSRIIATAHIKCEDPTSYMEVAKTIKDVFHNHGIHATTIQPEFASVGSKSSVVPCELACRTQCALKQCCGTLPQAPSGKDAEKTPAVSISCLELSNNLEKKPRRTKAENIPAVVIEIKNMPNKQPESSL
notes: human zinc transporter 1 (ZnT1, SLC30A1), soluble C-terminal domain, residues 342-507; Cloned into pET24a with a C-terminal His8-tag; no removal of the tag is described
stoichiometry N: 2
